According to patent publication US20240350586A1 (TSINGHUA UNIVERSITY, published 2024):

Columns and labels:
HA-CCT1 = target: T1, HA-CCT1 (human, UniProt P17987 1-556); assay: co-IP with T7-LC3C in HEK293T
T1 construct: Amplified from HEK293T cDNA; not shown: N-terminal HA tag
Protocol: (§1) The data are representative of three independent experiments. [0146] […] The data are representative of three independent experiments. [0147] […] The data are representative of three independent experiments. [0148] […] The interaction of the peptides with T7-GABARAP or T7-GABARAPL1 proteins was analyzed by in vitro pull-down. The data are representative of three independent experiments. [0149] […] The data are representative of three independent experiments. [0150] […] [0151] (K) Quantification of Q103-HTT-GFP area/DAPI area (mean±SEM) as shown in [0152] (J). 48 h represents IB accumulation stage and 72 h represents clearance stage. P values are indicated (two-tailed t test, >20 views from three independent experiments). [0153] […] The data are representative of three independent experiments. [0154] […] The data are representative of three independent experiments. [0155] […] The data are representative of three independent experiments.
(§2) Co-immunoprecipitation was performed essentially as described before. In brief, 24 h after transfection, the cells were collected and lysed on ice for 30 min in co-IP buffer (50 mM Tris/HCl pH 7.4, 150 mM NaCl, 1 mM EDTA, 0.5% NP40) with protease inhibitor mixture, and the lysates were cleared by centrifugation. The resulting supernatants were incubated with indicated agarose or magnetic beads and rotated at 4° C. for 3 h. The agarose was washed five times with co-IP buffer.

HA-CCT8 = target: T2, HA-CCT8 (human, UniProt P50990 2-548); assay: co-IP with T7-LC3C in HEK293T
T2 construct: not shown: N-terminal HA tag
T2 sequence (looked up): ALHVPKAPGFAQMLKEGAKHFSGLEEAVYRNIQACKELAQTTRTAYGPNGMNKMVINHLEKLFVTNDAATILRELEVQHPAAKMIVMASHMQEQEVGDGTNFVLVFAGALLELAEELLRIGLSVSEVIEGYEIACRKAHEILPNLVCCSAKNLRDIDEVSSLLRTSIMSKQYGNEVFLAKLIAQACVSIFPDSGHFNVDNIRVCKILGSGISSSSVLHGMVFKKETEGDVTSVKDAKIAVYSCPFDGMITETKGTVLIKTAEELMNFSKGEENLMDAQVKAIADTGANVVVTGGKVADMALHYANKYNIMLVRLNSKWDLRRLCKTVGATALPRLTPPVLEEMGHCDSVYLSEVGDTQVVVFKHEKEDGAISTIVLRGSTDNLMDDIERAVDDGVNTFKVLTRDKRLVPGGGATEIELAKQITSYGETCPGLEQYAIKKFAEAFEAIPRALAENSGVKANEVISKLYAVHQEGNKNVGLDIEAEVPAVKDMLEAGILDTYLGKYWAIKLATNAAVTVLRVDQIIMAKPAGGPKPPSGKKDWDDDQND
Protocol: as §1, §2

HA-CCT6 = target: T3, HA-CCT6 (human, UniProt P40227 2-531); assay: co-IP with T7-LC3C in HEK293T
T3 construct: Amplified from HEK293T cDNA; not shown: N-terminal HA tag
Protocol: as §1, §2

HA-CCT5 = target: T4, HA-CCT5 (human, UniProt P48643 2-541); assay: co-IP with T7-LC3C in HEK293T
T4 construct: not shown: N-terminal HA tag
Protocol: as §1, §2

HSPA9-HA = target: T5, HSPA9-HA (Homo sapiens (Human), UniProt P38646 1-679, limits assumed); assay: co-IP with T7-LC3C in HEK293T
T5 construct: Plasmid pCMV3-HSPA9-HA (SinoBiological HG16926-CY); also called long-form of HSPA9; not shown: C-terminal HA tag
Protocol: as §1, §2

[1] = target: T6, HA-CCT2 (chaperonin subunit CCT2, wild type, N-terminal HA tag) (human, UniProt P78371 2-535); assay: co-IP of HA-CCT2 with T7-LC3C in HEK293T with knockdown of P62, NBR1 and TAX1BP1
T6 construct: Expressed in HEK293T or U2OS from pFUGW-HA-CCT2; CCT genes were amplified from HEK293T cDNA; also called WT CCT2; HA-CCT2 WT; not shown: N-terminal HA tag
T6 sequence: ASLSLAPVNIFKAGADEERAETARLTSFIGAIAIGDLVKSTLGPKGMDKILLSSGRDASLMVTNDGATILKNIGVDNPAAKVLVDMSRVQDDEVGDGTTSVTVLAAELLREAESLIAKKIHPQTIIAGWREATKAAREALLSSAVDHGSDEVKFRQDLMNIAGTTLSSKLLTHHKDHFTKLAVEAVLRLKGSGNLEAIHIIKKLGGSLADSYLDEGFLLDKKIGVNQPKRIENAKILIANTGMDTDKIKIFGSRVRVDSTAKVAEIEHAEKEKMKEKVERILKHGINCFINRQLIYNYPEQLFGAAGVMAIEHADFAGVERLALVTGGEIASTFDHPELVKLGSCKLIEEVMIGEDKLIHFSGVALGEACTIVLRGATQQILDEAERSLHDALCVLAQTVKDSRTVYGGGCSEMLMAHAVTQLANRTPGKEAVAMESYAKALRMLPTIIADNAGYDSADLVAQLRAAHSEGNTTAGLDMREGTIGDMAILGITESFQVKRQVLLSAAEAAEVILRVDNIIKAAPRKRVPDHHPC
Protocol: as §1, §2

T1 sequence (P17987 whole entry): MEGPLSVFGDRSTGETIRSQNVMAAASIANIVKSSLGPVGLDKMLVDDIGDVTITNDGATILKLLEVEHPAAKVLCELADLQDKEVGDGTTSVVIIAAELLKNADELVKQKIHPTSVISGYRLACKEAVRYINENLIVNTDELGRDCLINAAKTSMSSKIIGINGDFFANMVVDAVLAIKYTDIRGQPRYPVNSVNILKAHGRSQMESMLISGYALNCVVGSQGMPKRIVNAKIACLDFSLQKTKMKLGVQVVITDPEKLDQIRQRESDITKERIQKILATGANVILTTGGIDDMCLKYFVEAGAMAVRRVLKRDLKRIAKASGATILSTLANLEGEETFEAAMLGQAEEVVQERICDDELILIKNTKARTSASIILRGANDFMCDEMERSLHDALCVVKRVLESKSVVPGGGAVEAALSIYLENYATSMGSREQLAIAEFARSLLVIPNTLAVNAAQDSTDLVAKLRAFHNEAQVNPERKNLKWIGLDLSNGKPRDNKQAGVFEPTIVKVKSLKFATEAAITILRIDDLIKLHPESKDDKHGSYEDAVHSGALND
T5 sequence (P38646 whole entry): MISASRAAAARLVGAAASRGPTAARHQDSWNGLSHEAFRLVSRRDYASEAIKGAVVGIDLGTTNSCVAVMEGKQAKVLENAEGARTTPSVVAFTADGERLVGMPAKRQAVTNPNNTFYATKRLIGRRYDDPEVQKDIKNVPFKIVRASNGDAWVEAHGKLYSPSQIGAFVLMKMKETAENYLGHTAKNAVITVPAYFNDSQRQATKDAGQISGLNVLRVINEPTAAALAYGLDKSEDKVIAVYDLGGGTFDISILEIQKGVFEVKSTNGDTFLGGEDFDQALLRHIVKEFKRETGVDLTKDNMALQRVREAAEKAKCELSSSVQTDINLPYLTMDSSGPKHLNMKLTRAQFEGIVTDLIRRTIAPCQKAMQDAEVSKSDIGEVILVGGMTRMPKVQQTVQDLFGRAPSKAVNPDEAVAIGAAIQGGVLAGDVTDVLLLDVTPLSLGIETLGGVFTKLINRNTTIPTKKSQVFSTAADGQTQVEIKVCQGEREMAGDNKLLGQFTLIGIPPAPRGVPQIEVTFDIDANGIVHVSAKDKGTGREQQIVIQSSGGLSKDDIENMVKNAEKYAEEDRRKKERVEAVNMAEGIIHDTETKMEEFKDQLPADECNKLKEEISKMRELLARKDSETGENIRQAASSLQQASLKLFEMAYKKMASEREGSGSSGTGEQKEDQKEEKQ
T4 sequence (P48643 2-541 limits assumed): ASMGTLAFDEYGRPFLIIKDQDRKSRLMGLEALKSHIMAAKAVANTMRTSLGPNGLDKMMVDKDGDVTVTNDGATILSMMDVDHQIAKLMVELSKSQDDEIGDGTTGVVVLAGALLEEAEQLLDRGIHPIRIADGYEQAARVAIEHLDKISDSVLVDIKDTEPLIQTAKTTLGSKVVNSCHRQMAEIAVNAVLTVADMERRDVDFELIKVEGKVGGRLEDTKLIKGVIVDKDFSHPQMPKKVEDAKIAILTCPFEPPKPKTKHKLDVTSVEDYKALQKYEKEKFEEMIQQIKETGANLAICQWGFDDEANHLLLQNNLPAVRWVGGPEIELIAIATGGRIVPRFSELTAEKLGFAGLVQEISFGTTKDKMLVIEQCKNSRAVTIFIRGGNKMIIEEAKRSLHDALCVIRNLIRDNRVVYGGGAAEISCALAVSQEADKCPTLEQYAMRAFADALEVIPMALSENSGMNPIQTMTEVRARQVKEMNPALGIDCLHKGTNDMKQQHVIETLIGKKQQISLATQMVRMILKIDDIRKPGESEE
T3 sequence (P40227 2-531 limits assumed): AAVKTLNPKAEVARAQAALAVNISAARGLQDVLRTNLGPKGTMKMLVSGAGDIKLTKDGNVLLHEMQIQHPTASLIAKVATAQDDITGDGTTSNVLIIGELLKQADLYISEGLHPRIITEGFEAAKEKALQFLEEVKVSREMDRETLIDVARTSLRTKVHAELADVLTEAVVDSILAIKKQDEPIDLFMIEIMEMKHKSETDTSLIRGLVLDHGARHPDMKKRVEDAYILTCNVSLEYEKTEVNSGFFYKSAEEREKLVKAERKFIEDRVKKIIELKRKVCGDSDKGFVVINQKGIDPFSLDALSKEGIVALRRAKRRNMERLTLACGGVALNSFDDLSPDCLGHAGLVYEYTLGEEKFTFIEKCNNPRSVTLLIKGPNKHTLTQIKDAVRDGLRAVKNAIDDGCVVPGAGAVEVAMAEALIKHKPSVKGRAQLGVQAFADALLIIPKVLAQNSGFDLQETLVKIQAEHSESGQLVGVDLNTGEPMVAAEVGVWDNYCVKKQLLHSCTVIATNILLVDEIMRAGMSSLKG

binding result (HA-CCT1): binds | binding result (HA-CCT8): no binding | binding result (HA-CCT6): binds | binding result (HA-CCT5): no binding | binding result (HSPA9-HA): binds | binding result [1]: binds
B1: T7-LC3C (expressed in cells) (other, UniProt Q9BXW4 1-126, looked up)
chain: MPPPQKIPSVRPFKQRKSLAIRQEEVAGIRAKFPNKIPVVVERYPRETFLPPLDKTKFLVPQELTMTQFLSIIRSRMVLRATEAFYLLVNNKSLVSMSATMAEIYRDYKDEDGFVYMTYASQETFG
notes: Expressed from pCDNA3-T7-LC3C; not shown: T7 tag
